{
  "source": "the DeepSol protein solubility set",
  "data": [
    {"experiment": "soluble on expression in E. coli; label from the status in PepcDB or PDB records", "values": [
      {"sequence": "MKKSILFICLLTLASTLAKVQAQEERNHGIIWSSLHGLEYGVKAGFNIGGTSPLPLPQEIRAITGYSPNVCFAIEGNVTKWFDKDKKWGMILGLRLENKGMETKARVKNYGMEIIGDGGEHLAGNWTGKVKTKFKASYFSIPILAAYQLSPRVRLSAGPYVSFMTSGDFNGYVSDGYLRKGDPTGTKVEFKDGNTAPYDFSKDLRSFQWGMQAGAEWKAFKHLTVHADLEWGLNDIFKKEFKTITFNMYPIYLNAGFGYAF", "soluble on expression in E. coli": "not soluble"},
      {"sequence": "MIDLSKTVFYTSIDIGSRYIKGLVLGKRDQEWEALAFSSVKSRGLDEGEIKDAIAFKESVNTLLKELEEQLQKSLRSDFVISFSSVSFEREDTVIERDFGEEKRSITLDILSEMQSEALEKLKENGKTPLHIFSKRYLLDDERIVFNPLDMKASKIAIEYTSIVVPLKVYEMFYNFLQDTVKSPFQLKSSLVSTAEGVLTTPEKDRGVVVVNLGYNFTGLIAYKNGVPIKISYVPVGMKHVIKDVSAVLDTSFEESERLIITHGNAVYNDLKEEEIQYRGLDGNTIKTTTAKKLSVIIHARLREIMSKSKKFFREVEAKIVEEGEIGIPGGVVLTGGGAKIPRINELATEVFKSPVRTGCYANSDRPSIINADEVANDPSFAAAFGNVFAVSENPYEETPVKSENPLKKIFRLFKELME", "soluble on expression in E. coli": "soluble"},
      {"sequence": "MSLSMLPSFGFTQEQVACVCEVLQQGGNLERLGRFLWSLPACDHLHKNESVLKAKAVVAFHRGNFRELYKILESHQFSPHNHPKMQQLWLKAHYVEAEKLRGRPLGAVGKYRVRRKFPLPRTIWDGEETSYCFKEKSRGVLREWYAHNPYPSPREKRELAEATGMTTTQVSNWFKNRRQRDRAAEAKERENTENEGHHHHHH", "soluble on expression in E. coli": "not soluble"},
      {"sequence": "MRGSHHHHHHTDPALRARIGIDLGGTKTEVIALGDAGEQLYRHRLPTPRDDYRQTIETIATLVDMAEQATGQRGTVGMGIPGSISPYTGVVKNANSTWLNGQPFDKDLSARLQREVRLANDANCLAVSEAVDGAAAGAQTVFAVIIGTGCGAGVAFNGRAHIGGNGTAGEWGHNPLPWMDEDELRYREEVPCYCGKQGCIETFISGTGFAMDYRRLSGHALKGSEIIRLVEESDPVAELALRRYELRLAKSLAHVVNILDPDVIVLGGGMSNVDRLYQTVGQLIKQFVFGGECETPVRKAKHGDSSGVRGAAWLWPQEGLCGR", "soluble on expression in E. coli": "soluble"},
      {"sequence": "MSLNIAKGEPVKITTIDVGNKSFPVKITFIDRKGVSYYIDVAMSRTNSGMEPADFQAEKRINYFPNAFSFTNPDVKTRESIQSKYIGQSVYPQKTIRVKQTELLRYTPLHIKDVQPEKAGTSATLLLTDIQGNTYQVKVDLKYDPILKNEDFIEDLFGFSDIRKKYPNISESNWLMLAKGEVKPGMTTEECKLAIGEPIEIRVRTDTRFETWLYRGKILEFENGILLRAKEGHHHHHH", "soluble on expression in E. coli": "soluble"},
      {"sequence": "MKAVTFPVPWEYLKRIFEGKNVFVKPATLRVEEGMKVIFYASRENQGWHGEAEVERVEYYTSVEEIIKKYRDKLFLTPEELRRYERDRARWDSGRRKRPWMVLVLRNIEKYPRVVKPKKFIVVSGRYVDEKEYEEIRRSTSLEHHHHHH", "soluble on expression in E. coli": "soluble"},
      {"sequence": "MGKRIAFWFEFASTYSYLSAMRIERAAADLGVTIAWEPFLLGPIFAAQGWTSSPFNLFPAKGRYMWRDMERLCARQGLPLTRPDPFPQNGLPAARLAMVAREMGHIAPFVRAVYAAQFGRGLVISDPQVLAECWAEAGLPPEAMEQAKSPEIKAALFAQGERAAALDLFGAPSFVVGEEVFWGDDRLDQALALAAQS", "soluble on expression in E. coli": "soluble"},
      {"sequence": "MKQLYGVIGNPIGHSLSPVMHNDAFEHLKMDAHYHAFLVKEEVLGEAVRGLKALGISGFNVTTPHKVAIMDYLDEIDPLAKQIGAVNTVVHKDGKLIGYNTDGIGFVRALQSISSEPLQEKRILLLGAGGASRAIYFSLADAGVKEIDVANRTVDKAKELIAACTATVHSVALSLEKATKEQGNYDIIIQTTTIGMHPRVEHTPLQISSLKKGTIVSDIIYNPFETKILCEAKEQGAIIQNGIDMFVYQGALAFEMWTGCVPNIERMKQLVIRNLEANIYVNRKTKKIFTCTSTSFNTNFSSRKRRSK", "soluble on expression in E. coli": "not soluble"},
      {"sequence": "MQQDVSREHTINNGSSMADHDEHPIEQKEFYMLIGLDIGGTKIEICVLDKQGSMLYRQRIATPDNYSQFVDCVCSLIVDAEQATQPVDSIGIGLPGAVSPVTGLIKNANCTFLNGQDLSSDLQYRLGREVKLANDANCFALSEAIDGAGKESMVVFGAILGTGCGGSIVVNRQVLVGPNAICGEWGHNPLPGYHLEQDGAARYCYCGRQNCIERFISGSGFQDSYQALTGECITASEIMKRYKQQEPEAIHCYTQLIDHMARSFAGLVNVLDPDIIVLGGGLSNIDELYRDLPTATARHVFSDSAQVHFAKAVFGDSSGIRGAAWL", "soluble on expression in E. coli": "not soluble"},
      {"sequence": "MGHHHHHHSHNQYPAELMRRFELYFQGPSSNKPRVIREVRADSVGKLVTVRGIVTRVSEVKPKMVVATYTCDQCGAETYQPIQSPTFMPLIMCPSQECQTNRSGGRLYLQTRGSRFIKFQEMKMQEHSDQVPVGNIPRSITVLVEGENTRIAQPGDHVSVTGIFLPILRTGFRQVVQGLLSETYLEAHRIVKMNKSEDDESGAGELTREELRQIAEEDFYEKLAASIAP", "soluble on expression in E. coli": "not soluble"},
      {"sequence": "EQTALKKVAEMARLADSYVSAWGDEAKVSDETLRRLLTSLGYDTSSDEKLLASAEKKHKKDVLAPVLVLRDGEPVEVELNLGTSARESEFSWRLETEQGEVLEGYLQSQIVRDERAEGGPLVFALPKNLAWGYHKLIISRKRRKTPYEMSLIITPKACFKQEDLNQ", "soluble on expression in E. coli": "not soluble"},
      {"sequence": "MRRRSGINTSAVRYCLRKRKDITLLNPIVRKFQYGQHTVTLETGMMARQATAAVMVSMDDTAVFVTVVGQKKAKPGQDFFPLTVNYQERTYAAGRIPGSFFRREGRPSEGETLIARLIDRPIRPLFPEGFVNEVQVIATVVSVNPQVNPDIVAMIGASAALSLSGIPFNGPIGAARVGYINDQYVLNPTQDELKESKLDLVVAGTEAAVLMVESEAELLSEDQMLGAVVFGHEQQQVVIQNINELVKEAGKPRWDWQPEPVNEALNARVAALAEARLSDAYRITDKQERYAQVDVIKSETIATLLAEDETLDENELGEILHAIEKNVVRSRVLAGEPRIDGREKDMIRGLDVRTGVLPRTHGSALFTRGETQALVTATLGTARDAQVLDELMGERTDTFLFHYNFPPYSVGETGMVGSPKRREIGHGRLAKRGVLAVMPDMDKFPYTVRVVSEITESNGSSSMASVCGASLALMDAGVPIKAAVAGIAMGLVKEGDNYVVLSDILGDEDHLGDMDFKVAGSRDGISALQMDIKIEGITKEIMQVALNQAKGARLHILGVMEQAINAPRGDISEFAPRIHTIKINPDKIKDVIGKGGSVIRALTEETGTTIEIEDDGTVKIAATDGEKAKHAIRRIEEITAEIEVGRVYTGKVTRIVDFGAFVAIGGGKEGLVHISQIADKRVEKVTDYLQMGQEVPVKVLEVDRQGRIRLSIKEATEQSQPAAAPEAPAAEQGE", "soluble on expression in E. coli": "not soluble"},
      {"sequence": "QVKDFVIEPPIKNNLHIYKTFGVFGGKEYSANSMYLVTKKGVVLFDVPWEKVQYQSLMDTIKKRHNLPVVAVFATHSHDDRAGDLSFFNNKGIKTYATAKTNEFLKKDGKATSTEIIKTGKPYRIGGEEFVVDFLGEGHTADNVVVWFPKYNVLDGGCLVKSNSATDLGYIKEANVEQWPKTINKLKAKYSKATLIIPGHDEWKGGGHVEHTLELLNKK", "soluble on expression in E. coli": "soluble"},
      {"sequence": "METSMITELKSVRDIWKKMPSERHARIFLEEMIWPSGRHCPHCGSLSSTPIRGRTARPGLYQCAERECCLQFTVTTKTPMHATKLDLRIWIAAIFLMLTSSKGISSVVMARILGVNQKTAWKLGHAIRELMDEREAVSARLAGVVEVDEAYVGGAPKFKKGVKNKRGRGTGKPMVLVAADRTGQAKATLIPNAKGATLGPIMKEWIDPSSALMTDSNTAYRKIGRSFASHHTVNHGKRQHSRPSKGAHINTVEAVNSQVQRALIGVYHRLGRQHLQRYLDEILWQWNHRQQEVKIRNRKTSSGTKTIATRVWKPIPVVDQMRGLLCCAVGRQLRRTPQWGLCWPIHLFEHKGTFA", "soluble on expression in E. coli": "soluble"},
      {"sequence": "MKYKIFASTTPQTEPVLQKLKQVLKGCEAVEKGFDYLFVLGGDGFFVSTVANYNCHNCRVVGINTGHLGFYTSFNEKDLDDNFLQKLQQCHFQRISLLEVSVNGQQHLVLNELAVYTNTAYPINIFIDGEAWEFYRGSGLLIGPRTGSTALAKSAKGAVIFPGIDVLQIIEMNPLLHPNQVTIQSPIILPKETQVEFVVKKAFNPQQFPTFYCDGRKLELPNADTTLALKLVQSTPMFNISLKTQDFINKLKSTFIKQS", "soluble on expression in E. coli": "soluble"},
      {"sequence": "MAEIDYKKVTGMIHSTESFGSVDGPGIRFIIFMQGCKMRCQYCHNPDTWEMETNNSKERTVEDVLKEALRYKHFWGKDGGITVSGGEAMLQIDFITALFIEAKKLGIHTTLDTCGFAYRATPEYHAILEKLLDVTDLVLLDLKEIDSEQHKIVTRQSNKNILQFARYLSDRGTPVWIRHVLVPGLTDIDDHLKRLGEFVQTLDNVDKFEVLPYHTMGEFKWRELGIPYPLAGVKPPTPERVKNAKDIMKTESYTEYLKRIQN", "soluble on expression in E. coli": "soluble"},
      {"sequence": "MGSDKIHHHHHHMSRLERLVTIDSLIRSRTYPSVADFCARFELSERAIFADLAYLRERIGAPLAYSRRNGGYYYRDPTWVMPMLQVTEGELLAFLISTELSRRYLGTPFAAPLRRLLQRMEAYITEQIVVHPDALLAHLTFQPGALAAVDPELVQVLHECIRECYPVEITYFTASRQELTHRLIEPYHLFLARGDLHVIAFDHLRGELRQFALYRIRQWQVRRHERFVRNPQIDIAAYLRNGFVVEGGTQPLLIEIAFDREQAPYIRERQWHATQQLEDQPDGGVILRFQSGALGEIKRWVLGYGSHARVLSPPELVQMVADELRKAAALYT", "soluble on expression in E. coli": "not soluble"},
      {"sequence": "MGSDKIHHHHHHMTSRSPFESFVWQSEIFNCQSNDIDAFYAQLAEEVNRLGLKKNTLGSVDSFAINLYQSASQRSDLPSLLISSGFHGEEAAGPWGMLHFLRGLQPALFERVNLSLLPLVNPTGFKAGHRFNRFGENPNRGFTLENGKPTPNEHTSLEGKLLLEHAQLLCAASRDGILTCHEDVLMNETYVYSFEPTQTPGRFSLGLRDALGQYFKLAKDGFIDECPVTDGVIFNHFDTSFEAFLVRSGAKLAACSETPGQEDFDRRVQANSAAMGQFIAHCAPIL", "soluble on expression in E. coli": "not soluble"},
      {"sequence": "MGSDKIHHHHHHMANPQSPHATLQLPQGMEITAEIKPGYDAILTREALELVAALHRTFEPRRQQLLQARAERTKRLDAGERPDFLAETKSVREGDWKIAPLPQDLQCRRVEITGPVERKMIINALNSGADSYMTDFEDSNAPSWDNQITGHINLKDAVRRTISLEQNGKSYALNDKVATLIVRPRGWHLDEKHVKVDGKRVSGSIFDFALFMVHNAKELLARGSGPYFYLPKMESHLEARLWNDIFVAAQEAVGVPRGTIRATVLIETILAAFEMDEILYELREHSSGLNAGRWDYIFSAIKKFKSDRDFCLADRSQITMTSPFMRAYALLLLKTCHRRNAPAIGGMSALIPIRNDPAANDKAMAGVRSDKARDAGDGYDGGWVAHPGLVAIAMEEFVKVLGDKPNQIGKQRDDVLVTATDLLDFRPETPITENGLRNNINVGIHYLGAWLTGNGCVPIHNLMEDAATAEISRSQVWQWIRSPKGKLDDGRKVTAELVRAMSAQELDKVKQAVGGDTKPYERAAQIFEEMSTSEQFTDFLTLPLYEEI", "soluble on expression in E. coli": "not soluble"}
    ]}
  ]
}
